Test results taken from patent US20030100510A1 (KANSAS UNIVERSITY MEDICAL CENTER, published 2003).

B1: type IV collagen α1 chain NC1 domain (bovine lens basement membrane) (other, UniProt Q7SIB2 1441-1669, looked up)
chain: SVDHGFLVTRHSQTTDDPQCPPGTKILYHGYSLLYVQGNERAHGQDLGTAGSCLRKFSTMPFLFCNINNVCNFASRNDYSYWLSTPEPMPMSMAPITGENIRPFISRCAVCEAPAMVMAVHSQTIQIPQCPTGWSSLWIGYSFVMHTSAGAEGSGQALASPGSCLEEFRSAPFIECHGRGTCNYYANAYSFWLATIERSEMFKKPTPSTLKAGELRTHVSRCQVCMRRT
notes: domain: NC1; 5-6 N-terminal and 2 C-terminal residues are disordered in the map; also called α1 NC1; α1(IV) NC1
B2: type IV collagen (α1)2.α2 NC1 trimer (bovine lens basement membrane) (other)
chain 1: B1 chain
chain 2: ISIGYLLVKHSQTDQEPMCPVGMNKLWSGYSLLYFEGQEKAHNQDLGLAGSCLARFSTMPFLYCNPGDVCYYASRNDKSYWLSTTAPLPMMPVAEEDIRPYISRCSVCEAPAVAIAVHSQDVSIPHCPAGWRSLWIGYSFLMHTAAGDEGGGQSLVSPGSCLEDFRATPFIECNGARGTCHYYANKYSFWLTTIPEQSFQGTPSADTLKAGLIRTHISRCQVCMKNL
notes: domain: NC1; Two such trimers make the [(α1)2.α2]2 NC1 hexamer that was crystallized. m3 is used for facts told of the trimer-trimer (hexamer) interface as a whole; also called protomer NC1 trimer; half of the [(α1)2.α2]2 NC1 hexamer

Target: the molecule itself
Assay: crystal structure of the NC1 hexamer, 2.0 Å
Protocol: The heavy atom soak screens were carried out at beamlines 1-5 and 9-2 of Stanford Syncrhortron Radiation Laboratory (SSRL) and beamline X8C of National Synchrotron Light Source (NSLS) at Brookhaven National Laboratory. The Br-MAD data sets used in this study were collected at SSRL and processed using DENZO and […] programs of HKL2000 suite (39). The Br⁻ sites were located using SOLVE program (40) and 37 highest peaks (>6σ) were used for phasing the reflections at 2.2 Å resolution. The resulting phases were improved by solvent flattening using RESOLVE (41) and the electron density map was calculated using FFT program of CCP4 suite (42). Polypeptides of two α1 chains and one α2 chain (chains A-C) were traced using the TOM FRODO graphics program (43). The complete asymmetric unit was generated using non-crystallographic symmetry (“NCS”) relations obtained from Br⁻ sites—first the second trimer (chains D-F) was generated to complete one hexamer and then the second hexamer (chains G-L) was generated from the first hexamer. […] The structure was analyzed using SETOR(45), GRASP(46), and SURFNET(47) graphics software packages and various utility programs in CCP4 suite. The hexamer interface was analyzed using HBPLUS(48) and protein-protein interaction web server (http:/www.biochem.uc1.ac.uk/bsm/PP/server/). […]

| Protein | binding result |
| --- | --- |
| B1 | binds |
| B2 | binds |
